Numbering of substitutions follows the chain as printed.
Legend:
IL-2 production = IL-2 production by T cells expressing chimeric molecules after antibody cross-linking; format: cell-based; conditions: for IL-2 production, fold less than the wild-type CD8/ζ: maximal stimulation with anti-CD8-α antibody, 24 hours, FIG. 4
Experimental: Microcultures of 0.25 ml were prepared containing 10^5 responding T cells expressing CD8/ζ, CD8/ζD67-126, CD8/ζY153E, CD25/ζ or CD25/ζY153E. For stimulation, microtiter wells were precoated with 50 μl of a phosphate-buffered saline solution containing varying concentrations of purified anti-CD8-α antibody (19/178) or anti-hCD25 antibody (B1.49.9) to cross-link the CD8/ζ, CD8/ζD67-126 and CD8/ζY153E, or CD25/ζ and CD25/ζY153E, respectively, on the surface of the T cells. Control wells were coated with an irrelevant antibody. After 2 hours at room temperature and 1 hr at 4° C., the wells were washed three times with fetal calf serum-containing tissue culture medium. […]. After 24 hours in culture, the supernatants were harvested and assayed for IL-2 content using methods generally described in Gillis et al. (J. Immunol. 120:2027-2032, 1978). A concentration of 1 U/ml of IL-2 was the minimum detectable in this assay.

TCR-ζ = assay: Cell-free association of TCR-ζ with the actin cytoskeleton (detergent soluble lysate, newly polymerized pellet); format: biochemical, murine
Experimental: Freshly isolated murine thymocytes or lymph node T cells, or CD25/ζ-expressing T cell hybridomas, were washed 3 times in BSS and incubated in the presence or absence of cytochalasin D for 1.5 hrs at 4° C., solubilized with 0.5% NP-40 in a Tris buffered saline solution (TBS; 150 mM NaCl, 10 mM Tris, pH 7.3) containing protease and phosphatase inhibitors (0.2 mM VO3, 10 mM NaF, 1 mM PMSF, and 1 mg/ml each of Aprotinin, Leupeptin, and α-l-antitrypsin) and centrifuged at 10,000 rpm for 10 min to pellet the insoluble material. […] To increase actin polymerization, the Mg^2+ concentration was increased to 2 mM. […] Immunoprecipitation of the detergent soluble fraction with anti-TCR-ζ antibody was then performed as described in Example 4. The pellet and the anti-TCR-ζ immunoprecipitate were resolved by SDS-PAGE gel electrophoresis and immunoblotted with anti-TCR-ζ antibody.

[1] = tested on: BW 5147 α−β− thymoma transfectants; assay: Association of chimeric or truncated TCR-ζ molecules with the cytoskeleton upon receptor ligation (immunoblot of detergent insoluble pellet); format: cell-based; conditions: substitution of the distal COOH-terminal tyrosine of the third ITAM

## CD8/ζD67-126: truncated CD8/ζ chimera expressing only intact ζc domain (SEQ ID NO:29) (RAKFSRSAETAANLQGTKGERRRGKGHDGLYQGLSTATKDTYDALHMQTLAPR)
IL-2 production
  IL-2 production, fold less than the wild-type CD8/ζ: 40 fold

## [Mg+2] [Mg^2+, reference compound]
TCR-ζ; 2 mM Mg2+ alone
  TCR-ζ binding with actin polymerization induced in vitro: without additional TCR-ζ binding

B1: CD25/ζ: chimera of extracellular and transmembrane regions of CD25 and the cytoplasmic domain of TCR-ζ (protein)
chain: ELCDDDPPEIPHATFKAMAYKEGTMLNCECKRGFRRIKSGSLYMLCTGNSSHSSWDNQCQCTSSATRNTTKQVTPQPEEQKERKTTEMQSPMQPVDQASLPGHCREPPPWENEATERIYHFVVGQMVYYQCVQGYRALHRGPAESVCKMTHGKTRWTQPQLICTGEMETSQFPGEEKPQASPEGRPESETSCLVTTTDFQIQTEMAATMETSIFTTEYQVAVAGCVFLLISVLLLSGLRAKFSRSAETAANLQDPNQLYNELNLGRREEYDVLEKKRARDPEMGGKQQRRRNPQEGVYNALQKDKMAEAYSEIGTKGERRRGKGHDGLYQGLSTATKDTYDALHMQTLAPR
TCR-ζ; in vitro activating (MgATP) condition, depleted from the pellet under actin depolymerizing conditions
  Co-sedimentation with the actin cytoskeleton in vitro: co-sediments with the actin cytoskeleton

B2: CD25/ζY153F: CD25/ζ with the tyrosine at residue 153 substituted for a phenylalanine (SEQ ID NO:31) (protein)
chain: RAKFSRSAETAANLQDPNQLYNELNLGRREEYDVLEKKRARDPEMGGKQQRRRNPQEGVYNALQKDKMAEAYSEIGTKGERRRGKGHDGLYQGLSTATKDTFDALHMQTLAPR
IL-2 production; receptor ligation
  Tyrosine phosphorylation of a set of proteins induced by receptor ligation, compared with the intact CD25/ζ chimera: qualitatively and quantitatively indistinguishable
[1]
  Effect of removal of the distal tyrosine (Y153F) on cytoskeletal association: almost completely abrogated cytoskeletal association

B3: CD8/ζY153E: substituted CD8/ζ chimera (SEQ ID NO:30) (protein)
chain: B2 chain with F102E
IL-2 production
  IL-2 production, fold less than the wild-type CD8/ζ: 100 fold
